Consider 2 molecules from patent publication US20200138970A1 (Bayer, published 2020).

Assay [1] deals with T1, human B7H3 on cancer cell lines (human, UniProt Q5ZPR3 29-534).
T1 sequence (looked up): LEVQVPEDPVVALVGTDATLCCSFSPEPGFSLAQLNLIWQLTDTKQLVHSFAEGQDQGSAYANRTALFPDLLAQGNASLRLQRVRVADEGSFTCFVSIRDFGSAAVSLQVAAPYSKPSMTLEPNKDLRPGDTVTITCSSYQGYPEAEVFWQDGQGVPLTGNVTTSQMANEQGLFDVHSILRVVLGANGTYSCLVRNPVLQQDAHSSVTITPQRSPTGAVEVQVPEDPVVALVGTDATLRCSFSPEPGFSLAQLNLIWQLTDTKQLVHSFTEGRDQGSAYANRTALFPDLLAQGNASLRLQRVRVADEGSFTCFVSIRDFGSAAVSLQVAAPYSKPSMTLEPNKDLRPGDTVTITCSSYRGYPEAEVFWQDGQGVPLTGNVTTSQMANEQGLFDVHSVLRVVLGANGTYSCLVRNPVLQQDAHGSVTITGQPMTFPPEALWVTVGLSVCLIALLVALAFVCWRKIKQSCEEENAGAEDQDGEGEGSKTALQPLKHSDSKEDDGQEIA
In words: cell-based or functional assay.

For assay [2], the target named is T1, human B7H3 on cancer cell lines. As to the kind of experiment: flow cytometry on A498 cells, dose response from 10 ug/mL (1:5 dilution), FITC secondary antibody. As for the experimental part:
A dose response curve (1:5 dilution) was generated. Following incubation, 200 μL of ice-cold FACS buffer were pipetted in and the cell suspension was centrifuged at 4° C., 400 g for 4 min. The cell pellet was washed with 300 μL of ice-cold FACS buffer prior to resuspending the pellet obtained in 100 μL of FACS buffer and again incubating for 30 min on ice with secondary antibody (monoclonal anti-kappa light chains FITC antibody, Sigma, No. SAB4700605) in a 1:10 dilution. Subsequently, the cells were washed with ice-cold FACS buffer and adjusted to a cell concentration of 0.5×10⁶ cells/mL before carrying out the flow cytometry using a Guava flow cytometer (Millipore). Propidium iodide (final concentration 1 μg/mL) was used for the live staining. With the aid of the background-corrected geometric mean fluorescence values, the IC50 value of the antibody to be investigated was determined.

Assay [3] concerns the target T2, human B7H4 (RnDSystems, 6576-B7) (human, UniProt Q7Z7D3 29-258, limits assumed).
T2 construct: Bought protein; His tag implied by anti-His detection
T2 sequence (looked up): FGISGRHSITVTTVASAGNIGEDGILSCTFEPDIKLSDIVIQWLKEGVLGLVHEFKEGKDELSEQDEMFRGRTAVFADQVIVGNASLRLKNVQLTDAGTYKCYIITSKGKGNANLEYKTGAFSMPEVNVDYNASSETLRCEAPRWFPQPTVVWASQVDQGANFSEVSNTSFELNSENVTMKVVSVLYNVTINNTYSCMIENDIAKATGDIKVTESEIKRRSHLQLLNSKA
In words: ELISA, IgG captured on anti-human IgG Fc, antigen 37 ng/ml, anti-His HRP detection. As for the experimental part:
(§1) Binding of the antibodies to human B7H3 and to human B7H2 and B7H4 was characterized using ELISAs. […] After washing once with PSB, 0.05% Tween, the plate was blocked with 100% Smart Block (Candor) for one hour at 37° C. The antibody to be tested was then attached to the plate (2 μg/ml IgG in PBS, 0.05% Tween, 10% Smart Block; 1 hour, room temperature). […] After washing three times, the plate was incubated with Amplex Red for 30 minutes and then read.

Assay [4] concerns the target T3, human B7H2 (RnDSystems, 8206-B7) (human, UniProt O75144 19-258, limits assumed).
T3 construct: Bought protein; His tag implied by anti-His detection
T3 sequence (looked up): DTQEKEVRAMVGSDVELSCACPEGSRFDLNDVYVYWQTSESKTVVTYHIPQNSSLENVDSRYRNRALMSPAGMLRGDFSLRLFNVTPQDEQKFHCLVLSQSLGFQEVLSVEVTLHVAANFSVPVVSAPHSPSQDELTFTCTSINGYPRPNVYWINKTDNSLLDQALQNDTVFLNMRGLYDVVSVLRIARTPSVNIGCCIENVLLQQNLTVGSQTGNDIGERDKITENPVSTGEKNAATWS
The assay is described as above. As for the experimental part: as §1

Assay [5] addresses T4, TPP-3760, B7H3 long, human (R&D Systems 2318-B3/CF) (human, UniProt Q5ZPR3 27-461).
T4 construct: Bought protein; also called B7H3 (RnDSystems, 2318-B3-050/CF); human B7H3
T4 sequence: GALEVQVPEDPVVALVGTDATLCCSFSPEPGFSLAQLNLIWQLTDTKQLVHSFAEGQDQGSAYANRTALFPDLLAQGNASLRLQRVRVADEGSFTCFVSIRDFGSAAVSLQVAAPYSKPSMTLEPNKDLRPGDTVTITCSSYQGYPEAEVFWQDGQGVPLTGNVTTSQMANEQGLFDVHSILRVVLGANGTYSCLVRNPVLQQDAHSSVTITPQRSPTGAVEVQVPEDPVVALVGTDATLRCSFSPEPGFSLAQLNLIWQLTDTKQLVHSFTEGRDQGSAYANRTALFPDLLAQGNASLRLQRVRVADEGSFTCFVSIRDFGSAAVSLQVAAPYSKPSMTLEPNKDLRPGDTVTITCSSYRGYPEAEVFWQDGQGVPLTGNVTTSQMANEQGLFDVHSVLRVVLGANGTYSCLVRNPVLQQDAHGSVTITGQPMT
Described as above. As for the experimental part: as §1

Usually EC50 stands for the concentration needed to bring the measured effect to its halfway point.

On to 208-isotype control (antibody), for which, in assay [1], the NCI-H292 CTG (IC50 M) stood at 137 nM and the U251 CTG (IC50 M) stood at 77.6 nM.

B1: TPP-6501 (antibody, human IgG1, lambda, V domains shown)
VH: EVQLLESGGGLVQPGGSLRLSCAASGFTFSSYGMHWVRQAPGKGLEWVSAISGSGGSTYYADSVKGRFTISRDNSKNTLYLQMNSLRAEDTAVYYCARGSNYLGMDVWGQGTLVTVSS
VL: QSVLTQPPSASGTPGQRVTISCSGSSSNIGRNIVNWYQQLPGTAPKLLIYRSNQRPSGVPDRFSGSKSGTSASLAISGLRSEDEADYYCQTWGTGWVFGGGTKLTVLG
As to B1, the EC50 in assay [2] came out at 1.23 nM. In addition, the “Quotient signal (B7)/signal (buffer)” value was below 1.5 in assay [3], below 1.5 in assay [4] and 118 in assay [5].
